This note sets out measurements from patent US20160317649A1, “EPITOPES OF HERPES SIMPLEX VIRUS” (priority 2007, published 2016).

What all share (details): modification not given
Assay [1] deals with HLA DRB1*0101 (human).
The target of assay [2] is HLA DRB1*0701 (human).
The target in a further assay is HLA DRB1*1302 (human).
In assay [3] the target is HLA DRB1*0101 (human). The source holds these as a separate data set.
The target of assay [4] is HLA DRB1*0101 (human). This is another data set of the same source.
Assay [5] deals with HLA DRB1*0701 (human). The source holds these as a separate data set.

Like-named read-outs stand apart in the source and are kept apart here.

By IC50 is commonly meant the midpoint of a concentration-inhibition curve. A higher IC50 goes with a need for much substance.

Take AYQQGVTVDSIG [24.2]: the values for the IC50 with HLA DRB1*0101 (human) [1] and in the assay with HLA DRB1*0701 (human) [2] were 471 nM and 2720 nM, respectively.

For the molecule APAAPANPGLII [34.2], the IC50 with HLA DRB1*1302 (human) was determined as 642 nM; with HLA DRB1*0101 (human) [3], 1270 nM.

As to HAPAAPANPGLI [34.1], the IC50 with HLA DRB1*0101 (human) [4] was determined as 3550 nM.

YQQGVTVDSIGM [24.3] came in with an IC50 in the assay with HLA DRB1*0701 (human) [5] of 389 nM.
